Laboratory results from PMC8698322, “Autophagy Is Involved in the Viability of Overexpressing Thioredoxin o1 Tobacco BY-2 Cells under Oxidative Conditions” (Antioxidants, 2021).

Target: the molecule itself
Assay: SDS-PAGE (reductant-free sample buffer) and Western blot with anti-His; recombinant HsATG4B treated with 1 mM or 3 mM H2O2 for 5 min at 25 °C in TBSK buffer (50 mM Tris-HCl, 140 mM NaCl, 30 mM KCl, pH 8.0); high-molecular-weight signal on the blot

B1: recombinant human ATG4B, His-tagged (His-HsATG4B) (enzyme, UniProt Q9Y4P1 1-393, looked up)
chain: MDAATLTYDTLRFAEFEDFPETSEPVWILGRKYSIFTEKDEILSDVASRLWFTYRKNFPAIGGTGPTSDTGWGCMLRCGQMIFAQALVCRHLGRDWRWTQRKRQPDSYFSVLNAFIDRKDSYYSIHQIAQMGVGEGKSIGQWYGPNTVAQVLKKLAVFDTWSSLAVHIAMDNTVVMEEIRRLCRTSVPCAGATAFPADSDRHCNGFPAGAEVTNRPSPWRPLVLLIPLRLGLTDINEAYVETLKHCFMMPQSLGVIGGKPNSAHYFIGYVGEELIYLDPHTTQPAVEPTDGCFIPDESFHCQHPPCRMSIAELDPSIAVGFFCKTEDDFNDWCQQVKKLSLLGGALPMFELVELQPSHLACPDVLNLSLDSSDVERLERFFDSEDEDFEILSL
notes: human cysteine protease ATG4B, recombinant, bought; printed size with His tag 47 kDa; No catalogue number is printed; source: bought: Abcam
binding result: binds
